Paper PMC3173369, “Mitochondrial Inhibitory Factor 1 (IF1) Is Present in Human Serum and Is Positively Correlated with HDL-Cholesterol” (PLoS ONE, 2011)

Target: the molecule itself
Assay: SDS-PAGE and Western blot after immunoprecipitation; 2 µg purified rIF1 immunoprecipitated with anti-IF1 antibodies cross-linked on protein A/G resin, eluted in 0.2 M glycine pH 2.8, boiled in Laemmli buffer with SDS and DTT, 15% SDS-PAGE, blot with anti-IF1; bands at the size of monomer and dimer

B1: Recombinant human IF1 (mitochondrial Inhibitory Factor 1) (natural protein, UniProt Q9UII2-1 26-106, looked up)
chain: GSDQSENVDRGAGSIREAGGAFGKREQAEEERYFRAQSREQLAALKKHHEEEIVHHKKEIERLQKEIERHKQKIKMLKHDD
notes: mature peptide without the mitochondrial targeting signal, amplified from HeLa cell cDNA; Cloned at BamHI/HindIII into pBEn-SBP-SET1-Qa (Stratagene); also called rIF1; recombinant IF1
  stoichiometry N: 2
